Measurements published in patent US20230137032A1 (GlaxoSmithKline, published 2023).

Legend:
[1] = target: T1, human BCMA expressed on cells (human, UniProt Q02223 1-184); test: FACS on U266 cells, PE anti-human IgG, MFI
T1 construct: whole, on cells; also called human BCMA HEK293; ARH77-hBCMA 10B5 BCMA expressing transfectant cells
T1 sequence (looked up): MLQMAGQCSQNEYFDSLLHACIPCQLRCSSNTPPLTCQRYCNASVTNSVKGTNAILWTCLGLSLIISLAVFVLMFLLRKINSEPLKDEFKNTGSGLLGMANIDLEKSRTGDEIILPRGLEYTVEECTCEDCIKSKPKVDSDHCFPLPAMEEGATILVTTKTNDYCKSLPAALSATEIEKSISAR
Protocol: (§1) Cells were then washed with FACS buffer (PBS+0.5% BSA+0.1% sodium azide) to remove unbound antibody. Cells were incubated with a secondary PE labelled anti-human IgG antibody for 15 minutes at RT and then washed with FACS buffer to remove unbound antibody. Cells were analysed by FACS and mean fluorescence intensity (MFI) values measured to determine binding.

[2] = target: T1, human BCMA expressed on cells; test: FACS on JJN-3 cells, PE anti-human IgG, MFI
Protocol: as §1

[3] = target: T2, recombinant human BCMA, commercial (US Biological, B0410) (human, UniProt Q02223 5-54, limits assumed); test: Biacore T100, antibody captured on Protein A, 37C, experiment 2
T2 construct: also called commercial human BCMA; Human commercial BCMA
T2 chain (looked up): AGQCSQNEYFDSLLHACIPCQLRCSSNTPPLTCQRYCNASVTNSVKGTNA
Protocol: Protein A was immobilised on a CMS chip (GE Healthcare, Cat No: BR-1005-30) by primary amine coupling and this surface was then used to capture the antibody molecules. Recombinant human BCMA (US Biological, B0410) was used as analyte at 256 nM, 64 nM, 16 nM, 4 nM and 1 nM. Regeneration of the capture surface was carried out using 50 mM NaOH. All binding curves were double referenced with a buffer injection (i.e. 0 nM) the data was fitted to the using the 1:1 model inherent to T100 evaluation software. The run was carried out at 25° C. and 37° C. for experiment 1 and only 37° C. for experiment 2 using HBS-EP as the running buffer.

[4] = target: T1, human BCMA expressed on cells; test: FACS on H929 cells, PE anti-human IgG, MFI
Protocol: as §1

[5] = target: T3, cyno BCMA expressed on HEK293 cells (cyno, UniProt A0A2K5UD97 1-183); test: FMAT cell binding on HEK293 cells transfected with cyno BCMA, anti-human IgG FMAT Blue detection
T3 construct: whole, on cells; also called cyno BCMA HEK293
Protocol: (§2) Cryopreserved transfected human, cyno BCMA and mock transfected HEK293 cells were recovered from LN2 storage. […] The assay plates were left for a minimum of 90 minutes before the result was read on the ABI8200 (FMAT) plate reader.

[6] = target: T4, recombinant cyno BCMA, in house material (cyno, UniProt A0A2K5UD97 4-52); test: ProteOn SPR run 1, antibody captured on Protein A, 25C
T4 construct: also called Cyno in house BCMA

[7] = target: T1, human BCMA expressed on cells; test: FMAT cell binding on HEK293 cells transfected with human BCMA, anti-human IgG FMAT Blue detection
Protocol: as §2

[8] = target: T5, recombinant human BCMA, in house material (human, UniProt Q02223 4-53, limits assumed); test: ProteOn SPR run 1, antibody captured on Protein A, 25C; Run 1 (Table 8)
T5 construct: also called Human in house BCMA; In house human BCMA
Protocol: The initial screen of CA8 chimeric and humanised variants was carried out on the ProteOn XPR36 (Biorad). The method was as follows; Protein A was immobilised on a GLC chip (Biorad, Cat No: 176-5011) by primary amine coupling, CA8 variants were then captured on this surface and recombinant human BCMA (in house or commercial US Biological, B0410) materials (run 2 only)) passed over at 256, 64, 16, 4, 1 nM with a 0 nM injection (i.e. buffer alone) used to double reference the binding curves, the buffer used is the HBS-EP buffer. 50 mM NaOH was used to regenerate the capture surface. The data was fitted to the 1:1 model using the analysis software inherent to the ProteOn XPR36. […] Both runs were carried out at 25° C.

T4 sequence (A0A2K5UD97 entry or part of it): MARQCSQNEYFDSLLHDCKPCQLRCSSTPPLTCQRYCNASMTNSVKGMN
T3 sequence (A0A2K5UD97 entry or part of it): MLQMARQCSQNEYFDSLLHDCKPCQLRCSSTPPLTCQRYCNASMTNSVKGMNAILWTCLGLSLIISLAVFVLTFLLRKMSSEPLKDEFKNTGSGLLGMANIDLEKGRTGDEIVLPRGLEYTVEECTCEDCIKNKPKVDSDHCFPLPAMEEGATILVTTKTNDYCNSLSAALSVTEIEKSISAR

B1: CA8 chimera antibody (human chimeric CA8) (antibody, V domains shown)
VH: EVQLQQSGAVLARPGASVKMSCKGSGYTFTNYWMHWVKQRPGQGLEWIGATYRGHSDTYYNQKFKGKAKLTAVTSTSTAYMELSSLTNEDSAVYYCTRGAIYNGYDVLDNWGQGTLVTVSS
VL: DIQLTQTTSSLSASLGDRVTISCSASQDISNYLNWYQQKPDGTVELVIYYTSNLHSGVPSRFSGSGSGTDYSLTIGYLEPEDVATYYCQQYRKLPWTFGGGSKLEIKR
notes: also called Chimera CA8; CA8 chimeric antibody
B1 was tested, and the “EC50 (read off the curve)” value [1] was about 0.3 µg/mL, the “EC50 (read off the curve)” value [2] was about 0.2 µg/mL and the Kd [3] was 0.055 nM. For the same binder, the “EC50 (read off the curve)” value [4] was about 0.3 µg/mL, the “EC50 (read off the curve)” value [5] was about 0.3 µg/mL and the Kd [6] was 0.457 nM. For the same binder, the “EC50 (read off the curve)” value [7] was about 0.4 µg/mL and the Kd [8] was 0.519 nM.
